{"source": "paper PMC6733924", "key": {"[1]": {"target": "GST fused to the TRPM8 N-terminal tail", "experiment": "pull-down; purified GST-fusion proteins of the TRPM8 tails on beads incubated overnight at 4 °C with in vitro translated AR proteins, no testosterone; fluorescence imaging or anti-AR immunoblot; normalised to the input"}, "[2]": {"target": "GST fused to the TRPM8 C-terminal tail", "experiment": "pull-down; as a4, with 1, 10 or 100 nM testosterone during incubation of in vitro translated AR with the N- or C-terminal tail of TRPM8"}}}
{"substance": "in vitro translated AR (from UniProt P10275 1-920) (natural protein)", "values": [{"measurement": "percent stronger pull-down by M8-Nt than by M8-Ct", "setting": "[1]", "value": 48, "unit": "%"}, {"measurement": "percent decrease of pulled-down AR with 1 nM testosterone", "setting": "[2]", "value": 43, "unit": "%"}, {"measurement": "percent decrease of pulled-down AR with 10 nM testosterone", "setting": "[2]", "value": 65.6, "unit": "%"}, {"measurement": "percent decrease of pulled-down AR with 100 nM testosterone", "setting": "[2]", "value": 93.1, "unit": "%"}]}
